From article PMC3374333 (Nature neuroscience, 2012)

Target: the molecule itself
Experiment: SEC

B1: GBR1bVFT (Venus Flytrap module of the extracellular domain of human GABAB receptor subunit GBR1b) (domain or fragment, UniProt Q9UBS5-2 30-459, looked up)
chain: SHSPHLPRPHSRVPPHPSSERRAVYIGALFPMSGGWPGGQACQPAVEMALEDVNSRRDILPDYELKLIHHDSKCDPGQATKYLYELLYNDPIKIILMPGCSSVSTLVAEAARMWNLIVLSYGSSSPALSNRQRFPTFFRTHPSATLHNPTRVKLFEKWGWKKIATIQQTTEVFTSTLDDLEERVKEAGIEITFRQSFFSDPAVPVKNLKRQDARIIVGLFYETEARKVFCEVYKERLFGKKYVWFLIGWYADNWFKIYDPSINCTVDEMTEAVEGHITTEIVMLNPANTRSISNMTSQEFVEKLTKRLKRHPEETGGFQEAPLAYDAIWALALALNKTSGGGGRSGVRLEDFNYNNQTITDQIYRAMNSSSFEGVSGHVVFDASGSRMAWTLIEQLQGGSYKKIGYYDSTKDDLSWSKTDKWIGGSPPAD
stoichiometry N: 2
